Here are results for nine molecules from US20220340682A1 (Sanofi, published 2022).

The target of assay [1] is T1, hCEACAM8, human CEACAM8 ECD (35-332) (human, UniProt P31997 35-332).
T1 construct: With 24 amino acid extension containing a His-Tag
T1 sequence: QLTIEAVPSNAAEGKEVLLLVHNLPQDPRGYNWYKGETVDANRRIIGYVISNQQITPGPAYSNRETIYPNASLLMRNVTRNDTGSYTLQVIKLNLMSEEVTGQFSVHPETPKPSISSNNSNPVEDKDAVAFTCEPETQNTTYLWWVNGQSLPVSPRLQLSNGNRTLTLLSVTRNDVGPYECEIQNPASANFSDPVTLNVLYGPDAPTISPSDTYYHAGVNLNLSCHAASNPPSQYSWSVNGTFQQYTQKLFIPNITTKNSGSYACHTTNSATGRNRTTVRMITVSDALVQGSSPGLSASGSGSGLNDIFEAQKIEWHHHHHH
In words: ELISA. In general terms: An ELISA detects its analyte on a solid surface through an enzyme-linked reagent.

The target in assay [2] is T2, hCEACAM1, human CEACAM1 ECD (35-428) (human, UniProt P13688 35-428).
T2 construct: With 24 amino acid extension containing a His-Tag; also called hEACAM1
T2 sequence: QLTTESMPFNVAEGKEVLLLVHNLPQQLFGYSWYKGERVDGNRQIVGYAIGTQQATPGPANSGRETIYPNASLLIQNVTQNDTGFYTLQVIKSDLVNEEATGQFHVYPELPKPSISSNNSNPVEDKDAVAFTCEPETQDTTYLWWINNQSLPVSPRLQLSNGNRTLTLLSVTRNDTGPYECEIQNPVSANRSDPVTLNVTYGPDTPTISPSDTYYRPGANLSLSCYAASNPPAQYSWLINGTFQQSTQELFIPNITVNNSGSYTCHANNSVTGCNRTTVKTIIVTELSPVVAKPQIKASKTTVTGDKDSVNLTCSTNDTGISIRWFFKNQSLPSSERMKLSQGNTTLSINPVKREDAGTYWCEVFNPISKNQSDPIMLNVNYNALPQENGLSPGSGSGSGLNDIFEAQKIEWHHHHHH
The assay can be described thus: ELISA.

For assay [3], the target named is T3, hCEACAM5, human CEACAM5 ECD (35-685) (human, UniProt P06731 35-685).
T3 construct: produced in HEK293; also called human CEACAM5 protein; human CEACAM5 extracellular domain
T3 sequence: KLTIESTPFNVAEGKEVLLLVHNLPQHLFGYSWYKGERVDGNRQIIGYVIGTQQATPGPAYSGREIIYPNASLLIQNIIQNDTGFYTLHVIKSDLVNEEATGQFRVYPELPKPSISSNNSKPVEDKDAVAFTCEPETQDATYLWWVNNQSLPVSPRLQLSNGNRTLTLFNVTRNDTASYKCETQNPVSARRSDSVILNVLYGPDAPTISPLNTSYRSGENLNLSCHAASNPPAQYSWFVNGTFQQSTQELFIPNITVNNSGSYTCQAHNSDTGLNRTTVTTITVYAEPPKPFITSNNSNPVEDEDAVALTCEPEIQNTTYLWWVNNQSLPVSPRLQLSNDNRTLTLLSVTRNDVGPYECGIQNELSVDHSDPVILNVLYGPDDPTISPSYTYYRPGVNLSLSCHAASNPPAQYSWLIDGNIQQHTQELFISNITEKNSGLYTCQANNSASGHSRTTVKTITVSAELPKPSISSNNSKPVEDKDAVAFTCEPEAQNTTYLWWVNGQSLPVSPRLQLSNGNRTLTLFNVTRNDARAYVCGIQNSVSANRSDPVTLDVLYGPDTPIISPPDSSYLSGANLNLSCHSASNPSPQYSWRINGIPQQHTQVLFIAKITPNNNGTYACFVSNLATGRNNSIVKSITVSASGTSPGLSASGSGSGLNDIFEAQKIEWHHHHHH
In words: ELISA.

For assay [4], the target named is T4, hCEACAM6, human CEACAM6 ECD (35-327) (human, UniProt P40199 35-327).
T4 construct: With 24 amino acid extension containing a His-Tag
T4 sequence: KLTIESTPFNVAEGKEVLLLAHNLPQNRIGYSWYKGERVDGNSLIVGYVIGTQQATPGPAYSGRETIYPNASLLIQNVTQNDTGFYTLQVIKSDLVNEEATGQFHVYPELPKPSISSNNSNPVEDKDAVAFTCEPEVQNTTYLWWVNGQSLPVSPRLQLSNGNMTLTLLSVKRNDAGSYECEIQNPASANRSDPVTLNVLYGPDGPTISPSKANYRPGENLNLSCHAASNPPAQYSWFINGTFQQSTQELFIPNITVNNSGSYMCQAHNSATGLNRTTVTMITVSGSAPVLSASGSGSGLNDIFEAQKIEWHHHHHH
The assay can be described thus: ELISA.

For assay [5], the target named is T5, hCEACAM7, human CEACAM7 ECD (36-248) (human).
T5 construct: With 24 amino acid extension containing a His-Tag
T5 chain: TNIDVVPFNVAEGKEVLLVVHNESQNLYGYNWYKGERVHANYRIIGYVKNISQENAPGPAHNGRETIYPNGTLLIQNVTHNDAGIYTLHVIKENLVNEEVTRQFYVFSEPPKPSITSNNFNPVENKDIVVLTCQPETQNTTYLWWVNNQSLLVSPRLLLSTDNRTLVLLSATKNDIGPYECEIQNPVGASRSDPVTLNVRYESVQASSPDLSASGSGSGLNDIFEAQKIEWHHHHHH
In words: ELISA.

Assay [6] concerns the target T6, cCEACAM5 A3B3, M. fascicularis CEACAM5 A3-B3 domain (499-688) (Macaca fascicularis).
T6 construct: Followed by 24 amino acid extension containing a His-Tag; also called cynomolgus CEACAM5 A3-B3
T6 chain: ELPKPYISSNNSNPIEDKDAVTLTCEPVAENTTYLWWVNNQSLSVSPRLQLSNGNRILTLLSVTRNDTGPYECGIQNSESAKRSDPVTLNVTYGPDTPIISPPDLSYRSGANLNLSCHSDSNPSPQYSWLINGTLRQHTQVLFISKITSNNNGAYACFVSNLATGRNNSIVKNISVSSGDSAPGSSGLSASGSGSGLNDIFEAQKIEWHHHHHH
In words: ELISA on coated recombinant CEACAM5 protein or domain, anti-mouse IgG-HRP, OD 450 nm. As to the method: Domain mapping of anti-CEACAM5 antibodies to human CEACAM5 and cynomolgus CEACAM5 proteins was determined by ELISA. […] Purified antibodies were added to the plates and detected by using rabbit anti-mouse IgG conjugated with horseradish peroxidase (Sigma; #A9044). Antibody binding was visualized by adding TMB-H2O2 buffer and read at a wavelength of 450 nm.

Substitutions are numbered along the chain they refer to.

B1: huMAb2-3 (antibody, human IgG1, kappa, V domains shown)
VH: EVQLQESGPGLVKPGGSLSLSCAASGFVFSSYDMSWVRQTPERGLEWVAYISSGGGITYAPSTVKGRFTVSRDNAKNTLYLQMNSLTSEDTAVYYCAAHYFGSSGPFAYWGQGTLVTVSS
VL: DIQMTQSPASLSASVGDRVTITCRASENIFSYLAWYQQKPGKSPKLLVYNTRTLAEGVPSRFSGSGSGTDFSLTISSLQPEDFATYYCQHHYGTPFTFGSGTKLEIKR
notes: Humanized MAb2, human IgG1 / Ckappa; also called MAb2_VL1cVH1a-IgG1
Take B1: the “percentage of binding compared to full binding with human CEACAM5” value (shortened to “percentage of binding”) in assay [1] was 0.6%; in assay [2], 0.3%; in assay [3], 100%; in assay [4] it was 0.3%; in assay [5] it was 0.3%.

B2: huMAb2-1 (antibody, V domains shown)
VH: B1 VH with G44R, A60F, V93I, S120A
VL: DIQMTQSPASLSASVGDTVTITCRASENIFSYLAWYQQKPGKSPKLLVYNTKTLAEGVPSRFSGSGSGTQFSLTISSLQPEDFGSYYCQHHYGTPFTFGSGTKLEIK
notes: Humanized MAb2 (VL1 + VH1) fused to human IgG1 and human Ckappa constant domains; also called MAb2_VL1VH1-IgG1; MAb2VL1VH1-IgG1
For B2, the “percentage of binding” value in assay [1] came to 0.9%; in assay [2] it was 0.3%; in assay [3], 100%; in assay [4], 0.2%; in assay [5], 0.3%.

B3: chMAb2 (antibody, human IgG1, kappa, V domains shown)
VH: EVQLQESGGVLVKPGGSLKLSCAASGFVFSSYDMSWVRQTPEKRLEWVAYISSGGGITYFPDTVQGRFTVSRDNAKNTLYLQMNSLKSEDTAIYYCAAHYFGSSGPFAYWGQGTLVTVSA
VL: B1 VL with D17E, R18T, P40Q, K45Q, R52K, D70Q, T74K, S76N, A84G, T85S
notes: Chimeric, human IgG1, Ck isotype; also called MAb2-IgG1; chimeric MAb2
B3: the “percentage of binding” value in assay [1] stood at 0.6%; in assay [2], 0.3%; in assay [3] it was 100%; in assay [4], 0.3%; in assay [5], 0.3%.

B4: huMAb2-4 (antibody, human IgG1, kappa, V domains shown)
VH: B1 VH with G44R, A60F, V93I, S120A
VL: B1 VL with R18T, D70Q, A84G, T85S
notes: Humanized MAb2, human IgG1 / Ckappa; also called MAb2_VL1d VH1-IgG1; MAb2_VL1dVH1-IgG1
For B4, the “percentage of binding” value in assay [1] was found to be 1.4%; in assay [2], 0.3%; in assay [3], 100%; in assay [4], 0.3%; in assay [5], 0.3%.

B5: huMAb2-2 (antibody, V domains shown)
VH: B1 VH
VL: B2 VL with T18R, Q70D, G84A, S85T
notes: Humanized MAb2 (VL1a + VH1a) fused to human IgG1 and human Ckappa constant domains; also called MAb2_VL1aVH1a-IgG1; MA2_VL1aVH1a-IgG1
Regarding B5, the “percentage of binding” value came out at 0.5% in assay [1]; 0.3% in assay [2]; 100% in assay [3]; 0.3% in assay [4]; 0.3% in assay [5].

B6: antibody MAb1 (antibody, IgG1, V domains shown)
VH: EVMLVESGGGLVKPGGSLKLSCAASGFTFSSYAMSWVRQTPEKRLEWVATISSGGSYIYYLDSVKGRFTISRDNAKNTLYLQMSSLRSEDTAMYYCARPAYYGNPAMDYWGQGTSVTVSS
VL: DILMTQSQKFMSTSVGDRVSVTCKASQNVGTNVAWYQQKPGQSPKPLIYSASYRYSGVPDRFTGSGSGTDFTLTISNVQSEDLAEYFCQQYNSYPLYTFGGGTKLEIK
B6: in assay [6], the binding result is “binds”.

B7: antibody MAb3 (antibody, IgG1, V domains shown)
VH: EVKLVESGGGLVKPGGSLTLPCAASGFTFSRYAMSWVRQTPEKRLEWVASISSGGDTYYPDSVKGRFTVSRDNARNILFLQMSSLRSEDTGMYYCARVNYYDSSFLDWWGQGTTLTVSS
VL: B6 VL with L3V, K9R, S14L, V15E, P46A, S93N
notes: Murine monoclonal from hybridoma, IgG1, kappa
On to B7, for which, in assay [6], the binding result is given as “binds”.

B8: antibody MAb4 (antibody, IgG1, V domains shown)
VH: EVQLVESGGGLVKPGGSLKLSCAASGFTFSSYDMSWVRQTPEKRLEWVAFISSYGGRTYYADTVKGRFTISRDNAKNTLYLQMSSLKSEDTAMFYCAAHYFGTSGPFAYWGQGTLVTVSA
VL: DIQMTQSPASLSASVGETVTITCRASENIYSYFAWYQQKQGKSPQLLVYNAKILAEGVPSRFSGSGSGTQFSLKINSLQPEDFGTYYCQHHYGIPFTFGSGTKLELK
notes: as for B7
As for B8, the binding result in assay [6] is reported as “binds”.

B9: antibody MAb5 (antibody, IgG1, V domains shown)
VH: ELQLVESGGVLVKPGGSLKLSCAASGFAFSSYDMSWVRQTPEKRLEWVTYINSGGGITYYPDTVKGRFTISRDNARNTLYLQMSSLKSEDTAIYYCTAHYFGSSGPFAYWGQGTLVTVSA
VL: B8 VL with F33L, I53T, A55T, T85S, I94T, L106I
notes: as for B7
For B9, in assay [6], the binding result is “binds”.
